In PMC9151557:

Biological target: recombinant protein fibronectin-collagen peptide (FCP) (human)
Test: SPR; OpenSPR (Nicoya); FCP fixed on an NTA sensor chip by capture coupling, integrin β3 injected sequentially; PBS running buffer, 25 °C; binding and dissociation 250 s each; regeneration with hydrochloric acid pH 2.0; one-to-one diffusion-corrected model, TraceDrawer (the discussion says integrin β3 was the captured one)

integrin β3, sequence (P05106 27-718): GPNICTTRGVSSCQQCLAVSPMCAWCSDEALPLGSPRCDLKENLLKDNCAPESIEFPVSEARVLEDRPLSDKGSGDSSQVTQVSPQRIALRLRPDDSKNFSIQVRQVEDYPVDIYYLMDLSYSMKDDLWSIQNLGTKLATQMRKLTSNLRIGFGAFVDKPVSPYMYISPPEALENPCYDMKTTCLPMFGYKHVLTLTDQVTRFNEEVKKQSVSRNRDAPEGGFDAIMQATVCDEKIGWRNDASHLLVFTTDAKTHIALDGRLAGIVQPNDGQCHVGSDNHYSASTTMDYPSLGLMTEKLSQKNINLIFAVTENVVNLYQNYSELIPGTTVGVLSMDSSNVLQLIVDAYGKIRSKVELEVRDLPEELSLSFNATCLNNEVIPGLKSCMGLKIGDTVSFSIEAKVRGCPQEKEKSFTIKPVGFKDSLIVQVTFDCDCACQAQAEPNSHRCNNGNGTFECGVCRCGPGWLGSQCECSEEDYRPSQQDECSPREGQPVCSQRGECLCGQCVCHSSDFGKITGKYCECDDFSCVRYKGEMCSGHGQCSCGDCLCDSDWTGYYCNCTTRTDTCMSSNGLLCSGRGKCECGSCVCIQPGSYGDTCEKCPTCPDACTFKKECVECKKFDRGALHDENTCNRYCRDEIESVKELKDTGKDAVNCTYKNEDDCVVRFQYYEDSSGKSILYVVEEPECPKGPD

- Kd: 53.7 nM
Substance: integrin β3 (from UniProt P05106 27-718) (receptor)
